Data: PMC10786891, “Massively parallel profiling of RNA-targeting CRISPR-Cas13d”

T1: EsCas13d, nuclease-dead (Eubacterium siraeum, UniProt B0MS50, R295A;H300A;R849A;H854A)
T1 sequence: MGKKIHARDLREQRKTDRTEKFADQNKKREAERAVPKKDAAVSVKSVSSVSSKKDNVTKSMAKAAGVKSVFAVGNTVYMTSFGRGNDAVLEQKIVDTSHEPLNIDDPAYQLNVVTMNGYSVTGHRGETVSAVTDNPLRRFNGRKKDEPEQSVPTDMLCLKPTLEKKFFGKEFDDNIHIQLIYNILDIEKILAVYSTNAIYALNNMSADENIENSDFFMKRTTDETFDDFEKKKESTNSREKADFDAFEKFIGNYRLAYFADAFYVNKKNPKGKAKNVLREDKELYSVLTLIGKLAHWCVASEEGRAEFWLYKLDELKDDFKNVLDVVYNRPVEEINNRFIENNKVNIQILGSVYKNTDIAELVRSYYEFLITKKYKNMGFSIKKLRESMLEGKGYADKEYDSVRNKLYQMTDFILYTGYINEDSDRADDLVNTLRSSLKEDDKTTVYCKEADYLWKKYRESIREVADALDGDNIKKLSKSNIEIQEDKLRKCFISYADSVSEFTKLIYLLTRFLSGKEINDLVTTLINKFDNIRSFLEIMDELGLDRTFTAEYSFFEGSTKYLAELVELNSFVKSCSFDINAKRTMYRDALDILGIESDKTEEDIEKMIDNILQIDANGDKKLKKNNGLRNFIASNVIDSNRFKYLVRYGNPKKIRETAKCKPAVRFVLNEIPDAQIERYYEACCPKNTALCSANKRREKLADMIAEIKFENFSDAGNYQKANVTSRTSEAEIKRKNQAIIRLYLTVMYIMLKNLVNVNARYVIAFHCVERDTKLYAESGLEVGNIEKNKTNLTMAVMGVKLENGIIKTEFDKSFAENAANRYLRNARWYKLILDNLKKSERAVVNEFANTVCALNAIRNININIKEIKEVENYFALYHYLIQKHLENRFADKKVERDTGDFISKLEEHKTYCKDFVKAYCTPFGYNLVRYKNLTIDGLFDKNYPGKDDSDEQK


Target: T1, EsCas13d, nuclease-dead
Test: crRNA (strand 1, pre-loaded); Mg2+; 40 mM Tris-HCl pH 7.5, 150 mM NaCl, 6 mM MgCl2, 1 mM DTT, 0.1% Tween-20, 0.2 mg/ml BSA; 25 C; 10 min per concentration, then washed
Conditions: tags: His6-TwinStrep-SUMO cleaved; N-terminal SNAP kept (SNAP-Surface 488); label: 3' end held by stalled T7 RNA polymerase

Binder	Kd [nM]
target 1 MT 5'PFS UAG 3'PFS UCG (mixed) RNA 1: CACCCGUGCAAAAAUGCAGGGGUCUAAAACUGAGCGGAUAACCUCUCUAUGG RNA 2: GGGAAUGGAUCCACAUCUACGAAUUCUAGCCAUAGAGAGGUUAUCCGCUCAUCGAGAUCGGAAGAGCACACGU	20.1 ± 3.45
target 1 MT 5'PFS AGA 3'PFS ACG (mixed) RNA 1: CACCCGUGCAAAAAUGCAGGGGUCUAAAACUGAGCGGAUAACCUCUCUAUGG RNA 2: GGGAAUGGAUCCACAUCUACGAAUUCAGACCAUAGAGAGGUUAUCCGCUCAACGAGAUCGGAAGAGCACACGU	29.5 ± 7
target 1 MT 5'PFS CAA 3'PFS ACG (mixed) RNA 1: CACCCGUGCAAAAAUGCAGGGGUCUAAAACUGAGCGGAUAACCUCUCUAUGG RNA 2: GGGAAUGGAUCCACAUCUACGAAUUCCAACCAUAGAGAGGUUAUCCGCUCAACGAGAUCGGAAGAGCACACGU	15 ± 5.5
target 1 MT 5'PFS AGA 3'PFS ACU (mixed) RNA 1: CACCCGUGCAAAAAUGCAGGGGUCUAAAACUGAGCGGAUAACCUCUCUAUGG RNA 2: GGGAAUGGAUCCACAUCUACGAAUUCAGACCAUAGAGAGGUUAUCCGCUCAACUAGAUCGGAAGAGCACACGU	~32
target 1 MT 5'PFS GGG 3'PFS GCA (mixed) RNA 1: CACCCGUGCAAAAAUGCAGGGGUCUAAAACUGAGCGGAUAACCUCUCUAUGG RNA 2: GGGAAUGGAUCCACAUCUACGAAUUCGGGCCAUAGAGAGGUUAUCCGCUCAGCAAGAUCGGAAGAGCACACGU	36 ± 13
target 1 MT 5'PFS UCG 3'PFS CGA (mixed) RNA 1: CACCCGUGCAAAAAUGCAGGGGUCUAAAACUGAGCGGAUAACCUCUCUAUGG RNA 2: GGGAAUGGAUCCACAUCUACGAAUUCUCGCCAUAGAGAGGUUAUCCGCUCACGAAGAUCGGAAGAGCACACGU	51 ± 22.5
target 1 MT 5'PFS UCG 3'PFS CGU (mixed) RNA 1: CACCCGUGCAAAAAUGCAGGGGUCUAAAACUGAGCGGAUAACCUCUCUAUGG RNA 2: GGGAAUGGAUCCACAUCUACGAAUUCUCGCCAUAGAGAGGUUAUCCGCUCACGUAGAUCGGAAGAGCACACGU	~100
target 1 MT 5'PFS ACA 3'PFS CGG (mixed) RNA 1: CACCCGUGCAAAAAUGCAGGGGUCUAAAACUGAGCGGAUAACCUCUCUAUGG RNA 2: GGGAAUGGAUCCACAUCUACGAAUUCACACCAUAGAGAGGUUAUCCGCUCACGGAGAUCGGAAGAGCACACGU	~70
target 1 MT 5'PFS CAA 3'PFS ACA (mixed) RNA 1: CACCCGUGCAAAAAUGCAGGGGUCUAAAACUGAGCGGAUAACCUCUCUAUGG RNA 2: GGGAAUGGAUCCACAUCUACGAAUUCCAACCAUAGAGAGGUUAUCCGCUCAACAAGAUCGGAAGAGCACACGU	~27
target 1 MT 5'PFS UUA 3'PFS UAU (mixed) RNA 1: CACCCGUGCAAAAAUGCAGGGGUCUAAAACUGAGCGGAUAACCUCUCUAUGG RNA 2: GGGAAUGGAUCCACAUCUACGAAUUCUUACCAUAGAGAGGUUAUCCGCUCAUAUAGAUCGGAAGAGCACACGU	12.7 ± 1.35
target 1 MT 5'PFS UGC 3'PFS AAG (mixed) RNA 1: CACCCGUGCAAAAAUGCAGGGGUCUAAAACUGAGCGGAUAACCUCUCUAUGG RNA 2: GGGAAUGGAUCCACAUCUACGAAUUCUGCCCAUAGAGAGGUUAUCCGCUCAAAGAGAUCGGAAGAGCACACGU	76 ± 33.5
target 1 MT 5'PFS GUA 3'PFS CCU (mixed) RNA 1: CACCCGUGCAAAAAUGCAGGGGUCUAAAACUGAGCGGAUAACCUCUCUAUGG RNA 2: GGGAAUGGAUCCACAUCUACGAAUUCGUACCAUAGAGAGGUUAUCCGCUCACCUAGAUCGGAAGAGCACACGU	7.3 ± 0.8
target 1 insA 3' of 19,insG 3' of 6 (mixed) RNA 1: CACCCGUGCAAAAAUGCAGGGGUCUAAAACUGAGCGGAUAACCUCUCUAUGG RNA 2: GGGAAUGGAUCCACAUCUACGAAUUCGUACCAUAAGAGAGGUUAUCCGGCUCACCGAGAUCGGAAGAGCACACGU	25.7 ± 2.3
